The source of these data is paper PMC5969528.

The target in test [1] is cytoplasmic dynein-1 heavy chain (mouse (endogenous in mouse brain)) (UniProt Q9JHU4). The experiment in a line: cryo-EM structure.
The target is the same in test [2]. The experiment in a line: cryo-EM structure. The source holds these as a separate data set.

Read-outs that look alike come from different tables or passages of the source.

A word on the stoichiometry N: it is the number of molecules, sites or subunits per partner or assembly. As to “cytoplasmic dynein-1 heavy chain, Q9JHU4 1-4644”, the stoichiometry N in test [1] and in test [2] was 2 in each case.
